This data set can be described thus: label from the status in PepcDB records.
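Further: failed if final PepcDB status was selected cloned or expressed and not failed if soluble or beyond.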

For the sequence “MADFLLELRSEEIPAGLQKMAVEKLAELLSAKLKEAGINPTKIEKYATPRRIALLMRDLPAKTEAVQEERRGPRADAPEKALAGFLRSTGLTKEELELRETPKGNFYYAHIEKPGQTLIALLGEAIPAIIKTFPWPKSMRWGNFSASSESLRWVRPLKGIVALIDEQLIPIELDGITSGTETKGHPFHHPDVVTLAKASDYPEKMAAAHVMIDFDARVQKITDEARKAAQKAGLTLIEDAALAQENAGLTEWPVPLLGRFDEAYLAVPREVIQLTMRTNQKYFACTDRNQDLAAVFICVADMEAQDGGKEITQGNEKVLSARLADARFFWEQDLKIPLEDWLPRLDSVLFYEGMGSVGDKAKRIAHLSGYIADQIGADRKQAERAGLLAKADLASNMVGEFPELQGVMGGYYAKAGNEAPDVVSAVSGQYQAEAGAGVAAAVSLADRIDSLACFFVRNIRPTGSKDPFALRRAAVQIIQTIIAHQLRLPLTPLFEKAGAGDQIESLLAFITERLKVQQREAGIRYDLIDAVLALGYEDDVIRLLARVQALQSFIESEDGSDLLAGYRRAVNILKGSEASEKGDISQEDIEQPEQDLQKALQAIEAPLEQALKAEDYAAAMTALASLRQPIDQFFDKVIVNHDKAGIRSRRLALLEQIRTAMHQVADFSVVEALTIEASGRKR”, the protein production entry is listed as “failed”.
In the case of “MADHSLQRRLAAIVVADVVGYSRLMEADEAATLANLRELRSGVIEPAVMRHHGRIFKVMGDGFLIEFGSAVEAVAAALEMQRAATAVEASGDRRLLLRVGVNLGDVIDDGSDVLGDDVNVAARLQTQAAPGGICISANVHGEIDGKISDRFFDAGERYLKNLTRPVHVWHWPDALQSILPLPECPSIAVLPFTNMSGDEADAPFVDGLTEDLITDLSRTAGLFVIARNSVYVYKGKPVDVRLVAQELGVRYVLEGSARRAMGRVRINAQLVDTLAGQHLWADRFDRTVEDVFELQDEVNAKIVEALVGRLTIPTPRNRPKNFEAYDLCVRARLLTEESPQTEREAYMLLQRAVELEPSYAEALGLLAYNRWLAWTHFGEPEDPNRRMAATFAQKAVDLDPNDAGCRYVLGTILAYERRWEESEAAFAKALELDPNHADTWAAMSDMSVLDGRVADGLAQIEKALRLNPYPACWYLCHLGQAQYAARDYEAAAATLRRKDTYRTNSRKFLAATLAQLGHREEARRESELFLIAHPHFTIGHWLSSQPLRDASVRDHFVDGFRKAGLPEM” it was “failed”; in that of “MADKEAAFDDAVEERVINEEYKIWKKNTPFLYDLVMTHALEWPSLTAQWLPDVTRPDGKDFSIHRLVLGTHTSDEQNHLVIASVQLPNDDAQFDASHYDSEKGEFGGFGSVSGKIEIEIKINHEGEVNRARYMPQNPCIIATKTPSCDVLVFDYTKHPSKPDPSGECNPDLRLRGHQKEGYGLSWNPNLSGNLLSASDDHTICLWDISAVPKEGKVVDAKTIFTGHTAVVEDVSWHLLHESLFGSVADDQKLMIWDTRSNNTSKPSHSVDAHTAEVNCLSFNPYSEFILATGSADKTVALWDLRNLKLKLHSFESHKDEIFQVQWSPHNETILASSGTDRRLNVWDLSKIGEEQSPEDAEDGPPELLFIHGGHTAKISDFSWNPNEPWVICSVSEDNIMQVWQMAENIYNDEDTEGSVDPEGQGS”, “not failed”; in that of “MADKTGTPHPLTEPGVWIERIGGRVFPPHLPALFLDRDGTINVDTDYPSDPAEIVLRPQMLPAIATANRAGIPVVVVTNQSGIARGYFGWSAFAAVNGRVLELLREEGVFVDMVLACAYHEAGVGPLAIPDHPMRKPNPGMLVEAGKRLALDLQRSLIVGDKLADMQAGKRAGLAQGWLVDGEAAVQPGFAIRPLRDSSELGDLLAAIETLGRDNRS”, “not failed”.
As for “MADLRKAARGRECQVRIPGVCNGNPETSVLAHIRLTGLCGTGTKPPDLIATIACSACHDEIDRRTHFVDAGYAKECALEGMARTQVIWLKEGVIKA”, the entry is “not failed”; as for “MADLTDALIDAALERGRSAHANEPRAAKARYDRSSARVIVDLENGCTFAFPPRLAQGLEGASDDQLCAVEILGQGYGLHWETLDVDLSLPGLMAGIFGTKAWMAKRAEPPPSAAKDAWSNLPR”, “not failed”; as for “MADNYVIWFENLRMTDVERVGGKNASLGEMISQLTEKGVRVPGGFATTAEAYRAFLAHNGLSERISAALAKLDVEDVAELARVGKEIRQWILDTPFPEQLDAEIEAAWNKMVADAGGADISVAVRSSATAEDLPDASFAGQQETFLNINGLDNVKEAMHHVFASLYNDRAISYRVHKGFEHDIVALSAGVQRMVRSDSGASGVMFTLDTESGYDQVVFVTSSYGLGENVVQGAVNPDEFYVFKPTLKAGKPAILRKTMGSKHIKMIFTDKAEAGKSVTNVDVPEEDRNRFSITDEEITELAHYALTIEKHYGRPMDIEWGRDGLDGKLYILQARPETVKSQEEGNRNLRRFAINGDKTVLCEGRAIGQKVGQGKVRLIKDASEMDSVEAGDVLVTDMTDPDWEPVMKRASAIVTNRGGRTCHAAIIARELGIPAVVGCGNATELLKNGQEVTVSCAEGDTGFIYAGLLDVQITDVALDNMPKAPVKVMMNVGNPELAFSFANLPSEGIGLARMEFIINRQIGIHPKALLEFDKQDDELKAEITRRIAGYASPVDFYVDKIAEGVATLAASVYPRKTIVRMSDFKSNEYANLVGGNVYEPHEENPMLGFRGAARYVADNFKDCFALECKALKRVRDEMGLTNVEIMIPFVRTLGEAEAVVKALKENGLERGKNGLRLIMMCELPSNAVLAEQFLQYFDGFSIGSNDMTQLTLGLDRDSGLVSESFDERNPAVKVMLHLAISACRKQNKYVGICGQGPSDHPDFAKWLVEEGIESVSLNPDTVIETWLYLANELNK”, “not failed”.
Consider “MADSKGTASPAKPLQPPSAATPIIERVIKQMESEDGWVSLGEVGKHLSNLASDFDPRTFGFRKLSDLVRKTNAFELEQQNGHLEHHHHHH”, for which the protein production result was “failed”.
In the case of “MADSKKITFEMNESVLTAQFSRLDEMASVVERRFSELKMTIEDVGNADPGSKITESLGGLQSGLGTISSAFGQLGSSSEAITSGFGTAVGSVGGITDAFKNLGSSVQNGTLFSSLSTGIGGMSTMLGGVTGGVQGITNLASGFMELKNHLGGLMSSIGGVGGIMGKLTSPMGLVIIGIVALVAAFTYLMTTNESFRNTVMSVVTQVAQLFGQLVASLMPIIMQIITAVMQIGAALMPIVMQFISFFAQLLAQLMPFINMLIAMLMPVIMQIVQVVMSLVSALLPSIMTVIQGIMSVIQFLIPIIMKIATVVVQIVVTIISYISKIMPIVMMIIGVIISIITTIISYIVVIATTISNVIGKIISFIASVITSIIGIVQPIIGFITNIFSSIVTVIGAAFQMVFAVASKIWNAIMATISGIIDGIKSVITGISTTVSSVFNGVKRIITGVFDGIKGAWGGLTEFVGTIFDGVSNAIQTVVDNVKGFVNVVIRGINSAISLINKIPGVEIGKIPQLISGTTNFQGGFARMNEGGRGEMVVLPSGSQVIPHDATMKYARESARGNKSMLYTNQGTDLARVENLLERLLQKNPVIKMDDKVVSEVVSRNQANSFDQYNYTMGGAAYS” it was “failed”; in that of “MADTSCKLKPLCFRFVSTLKSPIAVITVTYSPGKYLASFLDSLPGATSRDTHVVMADNGSVDGVPEQAAASRSNVEFLSTGGNLGYGTAINIAARSLRARREAGEIDGEFFLVSNPDVVFDEDSIDQLLECAKRHPEAGAVGPLIREADGSAYPSARAVPTLANGIGHALLGAVWKSNPWSAAYRDDEDMDTERTAGWLSGSCLLLRWDAFDRVGGFDERYFMYMEDVDLGDRLVRAGFTNVFCPSAQIIHAKGHVAGKNPENMLPAHHESAYRFQADRLAKPWQAPIRLALRIGLKLRAGVAVGVSKMRTKASLEHHHHHH”, “failed”; in that of “MAEAVERTDELVREYLLFRGFTHTLRQLDAEIKADKEKGFRVDKIVDQLQQLMQVYDLAALRDYWSYLERRLFSRLEDIYRPTINKLKTSLFRFYLVYTIQTNRNDKAQEFFAKQATELQNQAEWKDWFVLPFLPSPDTNPTFATYFSRQWADTFIISLHNFLSVLFQCMPVPVILNFDAECQRTNQVQEENEVLRQKLFALQAEIHRLKKEEQQQEEEAAALVQHKLPPYVSSMDRLGDSELALVCSQRPASLSQSPRVGFLSSLLPQSKKSPSRLSPAQGPPQAQSSAKKDSFSSQATKGKDSVPGAKDGKSLLSGPVPGEASWTHQRQRRLQDHGKERRELLSTSSSQSQCAERKPEVSGAEAEPCLELHMGPVEVLARVSTAGSEGDRPEQPFIVLSQEEYGEHHSSIMHCRVDCSGRRVASLDVDGVIKVWSFNPIMQTKASSISKSPLLSLEWATKRDRLLLLGSGVGTVRLYDTEAKKNLCEININDDMPRILSLACSPNGASFVCSAAAPSLTSQTDSSAPDIGSKGMNQVPGKLLLWDTKTMKQQLQFSLDPEPIAINCTAFNHNGNLLVTGAADGVIRLFDMQQHECAMSWKAHCGEVYSVEFSCDENAVYSIGEDRKFIQWNIHKSGLKVSESNLPSDATGPFVLSGYSGYKQVQVPRGRLFAFDSEGNYMLTCSATGGLIYKLGSEEKVLENCLSLGGHRAPVVTVDWSTAMDCGTCLTASMDGKIKLTTLLAHKL”, “failed”.
For the sequence “MAEEKVKDEAMQIMGMFQILPRLVVFDLDYTLWPFYCECRSKREMPSMYPQAKGILSALKEKGIEMAIASRSPTSDIANTFLDKLNIKPMFVAKVSKMGVTSILVGDGVTLGAFRQGLTEFTQNHNSIEKNKQVWRDKYSGKPTSSETDKD”, the protein production result is “failed”.
For the sequence “MAEGKAMSEFLPFSRPAMGVEELAAVKEVLESGWITTGPKNQALEQAFCQLTGNQHAIAVSSATAGMHITLMALKIGKGDEVITPSLTWVSTLNMISLLGATPVMVDVDRDTLMVTPEAIESAITPRTKAIIPVHYAGAPADIDAIRAIGERYGIAVIEDAAHAVGTYYKGRHIGAKGTAIFSFHAIKNITCAEGGLIVTDNENLARQLRMLKFHGLGVDAYDRQTWGRAPQAEVLTPGYKYNLTDINAAIALTQLVKLEHLNTRRREIAQQYQQALAALPFQPLSLPAWPHVHAWHLFIIRVDEQRCGISRDALMEALKERGIGTGLHFRAAHTQKYYRERFPTLSLPNTEWNSERICSLPLFPDMTTADADHVITALQQLAGQ”, the protein production result was “failed”.
On to “MAEKQKHDGRVKIGHYVLGDTLGVGTFGKVKIGEHQLTGHKVAVKILNRQKIRSLDVVGKIKREIQNLKLFRHPHIIKLYQVISTPTDFFMVMEYVSGGELFDYICKHGRVEEMEARRLFQQILSAVDYCHRHMVVHRDLKPENVLLDAHMNAKIADFGLSNMMSDGEFLRTSCGSPNYAAPEVISGRLYAGPEVDIWSCGVILYALLCGTLPFDDEHVPTLFKKIRGGVFYIPEYLNRSVATLLMHMLQVDPLKRATIKDIREHEWFKQDLPSYLFPEDPSYDANVIDDEAVKEVCEKFECTESEVMNSLYSGDPQDQLAVAYHLIIDNRRIMNQASEFYLASSPPSGSFMDDSAMHIPPGLKPHPERMPPLIADSPKARCPLDALNTTKPKSLAVKKAKWHLGIRSQSKPYDIMAEVYRAMKQLDFEWKVVNAYHLRVRRKNPVTGNYVKMSLQLYLVDNRSYLLDFKSIDDEVVEQRSGSSTPQRSCSAAGLHRPRSSFDSTTAESHSLSGSLTGSLTGSTLSSVSPRLGSHTMDFFEMCASLITTLAR”, for which the protein production entry is “failed”.
For “MAELILNQRPYPRDLGKIVCVGRNYAAHAKELNNPIPSSPILFIKPASSAVPFGPVFSIPKDQGSVHHELEIAILIGKALSRASTEQVAESIAGIGLGLDLTLRDVQDQLKEKGHPWERAKSFDGACPLTEFVAVNLASEDEWQAIGLTLEKNGQFQQQGSSAEMLFPILPLIAHMSEHFSLQPGDVILTGTPAGVGPLEVGDSLSAKLSLEDNVLLTCDGVVI”, the protein production entry is recorded as “not failed”.
As for “MAENLRDSVVHRDIALLSFCAPVMLERLPSSFVKHIELWLSAAGLGIIFGVGYASGPSGPAFWRLIAVIAVGIGVVHGFIFWAVRRRQRQVRRQSIREIQQMLSDVLKNKLAAINMYLPEDADEEMVKQELDGVRASIEDIADEIENISEESIEGWKEHYSGAVERTTNL”, the entry is “failed”.

The values are drawn from a protein production outcome set (Wang et al. 2014).
